Data on 7 molecules can be found in patent US20080031815A1 (published 2008).

In assay [1] the target is T1, human VEGFR-1 (FLT-1) expressed on porcine aortic endothelial cells (PAE/FLT-1) (human), P17948.
T1 chain: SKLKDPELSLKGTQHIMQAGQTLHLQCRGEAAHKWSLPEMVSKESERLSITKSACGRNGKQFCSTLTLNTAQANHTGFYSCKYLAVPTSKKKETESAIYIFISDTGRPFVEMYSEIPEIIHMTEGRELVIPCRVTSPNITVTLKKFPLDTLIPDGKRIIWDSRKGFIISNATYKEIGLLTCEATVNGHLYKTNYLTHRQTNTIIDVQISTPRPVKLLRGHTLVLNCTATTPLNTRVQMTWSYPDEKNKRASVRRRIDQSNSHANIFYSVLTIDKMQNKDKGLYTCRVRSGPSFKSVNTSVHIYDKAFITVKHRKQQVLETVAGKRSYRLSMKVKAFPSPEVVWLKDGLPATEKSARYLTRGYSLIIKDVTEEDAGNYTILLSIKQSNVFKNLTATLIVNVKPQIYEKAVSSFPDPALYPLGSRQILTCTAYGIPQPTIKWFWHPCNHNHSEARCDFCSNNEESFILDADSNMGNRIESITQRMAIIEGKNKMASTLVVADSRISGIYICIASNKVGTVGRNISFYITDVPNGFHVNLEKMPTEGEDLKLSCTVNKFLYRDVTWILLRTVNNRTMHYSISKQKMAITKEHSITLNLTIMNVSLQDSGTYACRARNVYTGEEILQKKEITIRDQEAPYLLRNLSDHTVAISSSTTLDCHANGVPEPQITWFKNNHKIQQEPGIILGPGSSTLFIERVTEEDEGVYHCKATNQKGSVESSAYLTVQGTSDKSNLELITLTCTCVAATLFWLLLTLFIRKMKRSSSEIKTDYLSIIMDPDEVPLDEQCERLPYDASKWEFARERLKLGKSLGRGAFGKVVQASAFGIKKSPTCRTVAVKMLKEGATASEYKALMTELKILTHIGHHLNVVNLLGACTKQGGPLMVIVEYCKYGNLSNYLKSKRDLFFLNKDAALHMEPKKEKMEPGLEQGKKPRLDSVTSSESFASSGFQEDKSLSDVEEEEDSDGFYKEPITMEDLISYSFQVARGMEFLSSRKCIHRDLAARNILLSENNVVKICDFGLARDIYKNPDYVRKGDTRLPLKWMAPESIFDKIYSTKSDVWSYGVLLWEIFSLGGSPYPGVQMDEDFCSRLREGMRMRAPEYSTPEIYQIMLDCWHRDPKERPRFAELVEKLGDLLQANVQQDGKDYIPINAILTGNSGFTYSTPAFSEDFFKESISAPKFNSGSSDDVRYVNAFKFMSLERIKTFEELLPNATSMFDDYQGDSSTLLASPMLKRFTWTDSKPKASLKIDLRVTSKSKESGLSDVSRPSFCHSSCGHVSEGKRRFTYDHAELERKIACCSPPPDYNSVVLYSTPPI
Kind of assay: competitive cell binding on PAE/FLT-1 cells, 125I-VEGF165 as radioligand. The following applies: remark: other sources report otherwise.

The target in assay [2] is T2, human VEGFR-2 (KDR) expressed on porcine aortic endothelial cells (PAE/KDR) (human, UniProt P35968 20-1356).
T2 construct: whole, on cells; also called Flk-1/KDR; PAE/KDR cells
T2 sequence (P35968 20-1356): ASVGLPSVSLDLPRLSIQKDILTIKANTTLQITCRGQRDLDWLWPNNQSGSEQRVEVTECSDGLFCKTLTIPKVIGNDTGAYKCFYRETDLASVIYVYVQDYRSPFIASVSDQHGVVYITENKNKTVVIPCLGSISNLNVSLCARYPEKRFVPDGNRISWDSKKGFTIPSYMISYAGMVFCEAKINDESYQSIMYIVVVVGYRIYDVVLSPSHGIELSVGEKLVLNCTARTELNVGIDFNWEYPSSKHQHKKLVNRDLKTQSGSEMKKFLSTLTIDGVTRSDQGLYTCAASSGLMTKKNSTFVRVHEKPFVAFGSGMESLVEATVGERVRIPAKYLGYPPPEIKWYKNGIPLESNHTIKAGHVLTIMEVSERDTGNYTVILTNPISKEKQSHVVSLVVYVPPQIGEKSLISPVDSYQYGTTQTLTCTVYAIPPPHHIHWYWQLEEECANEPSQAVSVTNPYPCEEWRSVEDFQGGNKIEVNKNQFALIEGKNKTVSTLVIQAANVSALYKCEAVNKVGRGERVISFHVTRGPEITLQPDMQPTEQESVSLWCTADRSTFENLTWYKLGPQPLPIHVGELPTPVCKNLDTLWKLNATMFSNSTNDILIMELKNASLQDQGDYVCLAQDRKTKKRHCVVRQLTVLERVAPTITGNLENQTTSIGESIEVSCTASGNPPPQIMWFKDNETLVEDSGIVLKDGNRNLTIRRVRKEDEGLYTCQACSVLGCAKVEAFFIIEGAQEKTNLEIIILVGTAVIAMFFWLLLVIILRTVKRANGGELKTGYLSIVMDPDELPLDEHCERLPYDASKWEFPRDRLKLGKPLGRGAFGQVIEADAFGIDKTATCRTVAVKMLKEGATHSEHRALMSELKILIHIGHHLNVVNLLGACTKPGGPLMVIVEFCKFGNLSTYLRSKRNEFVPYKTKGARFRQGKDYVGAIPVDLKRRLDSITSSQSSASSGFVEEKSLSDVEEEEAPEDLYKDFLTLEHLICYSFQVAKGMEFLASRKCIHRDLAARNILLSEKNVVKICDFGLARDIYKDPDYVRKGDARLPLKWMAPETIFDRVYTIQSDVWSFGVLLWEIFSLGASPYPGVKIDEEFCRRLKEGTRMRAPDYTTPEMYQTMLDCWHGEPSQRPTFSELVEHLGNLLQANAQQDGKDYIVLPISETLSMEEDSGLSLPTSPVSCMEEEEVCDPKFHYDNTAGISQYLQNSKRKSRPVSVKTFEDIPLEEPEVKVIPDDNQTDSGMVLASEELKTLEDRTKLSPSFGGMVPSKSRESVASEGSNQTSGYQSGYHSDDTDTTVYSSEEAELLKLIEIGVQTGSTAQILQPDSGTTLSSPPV
Kind of assay: competitive cell binding on PAE/KDR cells, 125I-VEGF165 as radioligand. On the procedure: (§1) The detailed procedure of competitive cell binding assay has been described herein. VEGFR-1 and VEGFR-2 binding affinity of VEGF₁₂₁, VEGFDEE, and the DOTA conjugates was evaluated by PAE/FLT-1 and PAE/KDR cell binding assays using ¹²⁵I-VEGF₁₆₅ (VEGF₁₆₅ protein (SEQ ID No: 4)) as the radioligand. The best-fit IC₅₀ values were calculated by fitting the data by nonlinear regression using GraphPad Prism (GraphPad Software, Inc.). Experiments were carried out with triplicate samples.

Assay [3] has as its target T2, human VEGFR-2 (KDR) expressed on …. Kind of assay: competitive cell binding on PAE/KDR cells, 125I-VEGF165 as radioligand (Example 2).
For assay [4] the target is unchanged. Kind of assay: cell-based or functional assay.
For assay [5] the target is unchanged. Kind of assay: competitive cell binding on PAE-KDR cells, 125I-VEGF165 as radioligand. On the procedure: (§2) Porcine aortic endothelial cells (PAE-KDR cells) stably transfected to express human VEGFR2 (KDR) and porcine aortic endothelial cells (PAE cells) not expressing VEGFR1 and VEGFR2 were cultured in Ham's F-12 medium containing 10% fetal bovine serum (Sigma-Aldrich, Saint Louis, Mo.). Using ¹²⁵I-VEGF₁₆₅ as the radioligand, receptor-binding affinity of VEGF₁₂₁ and VEGFNLS for VEGFR2 was performed as described elsewhere for both PAE-KDR and PAE cells (J Med. Chem. 2005; 48:1098-1106, which is include herein by reference). […] Serially diluted VEGF₁₂₁ or VEGFNLS were then added to compete with the radioligand ¹²⁵I-VEGF₁₆₅. After 2 h incubation at room temperature, the plates were washed and bound ¹²⁵I-VEGF₁₆₅/sVEGFR1 complex was dissociated by acidified 0.1% SDS solution, the eluent was collected and the radioactivity was measured by a gamma counter (Cobra II Auto-Gamma; Perkin-Elmer, Wellesley, Mass.). The best-fit 50% inhibitory concentration (IC₅₀) values were calculated by fitting the data by nonlinear regression using GraphPad Prism 4.0 (GraphPad Software, Inc., San Diego, Calif.). Experiments were performed twice with triplicate samples.

In assay [6] the target is T3, soluble VEGFR1D1-D6 (sVEGFR1) (Homo sapiens (Human), UniProt P17948 27-687).
T3 construct: Coated on 96-well plates
Kind of assay: plate-coated sVEGFR1, competition with 125I-VEGF165. On the procedure:
as §2

Assay [7] deals with T4, human VEGFR-1 (FLT-1) expressed on porcine aortic endothelial cells (PAE/FLT-1) (human, UniProt P17948 27-1338).
T4 construct: whole, on cells; also called PAE/VEGFR-1 cells; PAE/FLT-1 cells
Kind of assay: competitive cell binding on PAE/FLT-1 cells, 125I-VEGF165 as radioligand. On the procedure:
as §1
(§3) Two proteins were prepared for this study: VEGF₁₂₁ and the triple mutant at the 63, 64, and 67 positions (VEGFDEE) (FIG. 17). The His-tag containing proteins were purified to homogeneity. Cell binding assay was then carried out to determine the VEGFR-1 and VEGFR-2 binding affinity (FIGS. 18a and 18b).

The target of assay [8] is T2, human VEGFR-2 (KDR) expressed on …. Kind of assay: competitive cell binding on PAE/KDR cells. On the procedure: as §1, §3
Assay [9] concerns the target T4, human VEGFR-1 (FLT-1) expressed on …. Kind of assay: competitive cell binding on PAE/FLT-1 cells. On the procedure: as §1, §3
For assay [10], the target named is T2, human VEGFR-2 (KDR) expressed on …. Kind of assay: competitive cell binding on PAE/KDR against PAE/FLT-1 cells. On the procedure: as §1, §3

B1: VEGF121 protein (Examples 3 and 5: His-tag containing, expressed from pRSF-Duet1), P15692 207-395 (ligand, not shown: small tags and cut ends)
chain: APMAEGGGQNHHEVVKFMDVYQRSYCHPIETLVDIFQEYPDEIEYIFKPSCVPLMRCGGCCNDEGLECVPTEESNITMQIMRIKPHQGQHIGEMSFLQHNKCECRPKKDRARQEKCDKPRR
Consider B1, for which, in [1], the IC50 (as a rule, the midpoint of a concentration-inhibition curve) came out at 4.2 nM.

B2: DOTA-VEGF121 (Examples 1 and 2) (ligand)
chain: B1 chain
modifications: DOTA conjugated to lysine residues and/or N-terminal amine groups; 4.33±0.24 DOTA per VEGF121
notes: The conjugation sites are not mapped
For the molecule B2, the 50% inhibitory concentration (IC50) is 1.66 nM in assay [2] and 1.59 nM in assay [3].

B3: VEGF121 protein (Examples 1 and 2: expressed from pET-32, tag removed with enterokinase) (ligand)
chain: B1 chain
notes: also called unlabeled VEGF121; naive VEGF121
Take B3: the half-inhibitory concentration (IC50) in assay [2] is 1.02 nM; in assay [3], 1.11 nM.

B4: VEGF121 protein (Examples 3 and 5: His-tag containing, expressed from pRSF-Duet1) (ligand)
chain: B1 chain
notes: No tag removal is described; also called wild type VEGF121; wild-type VEGF121; not shown: His-tag
As for B4, in assay [4], the “functional assay using PAE/KDR cells (FIG. 18e)” value was above 5 nM and the “phosphorylated VEGFR-2 (Western blot, PAE/KDR cells)” value was above 10 nM. Also, in assay [5], the half-inhibitory concentration (IC50) is 2.9 nM. This molecule also returned a 50% inhibitory concentration (IC50) in assay [6] of 4 nM.

B5: DOTA-VEGF121 (Example 5) (ligand)
chain: B1 chain
modifications: DOTA conjugated; 2.1±0.1 DOTA molecules per monomeric VEGF121; sites not stated
notes: DOTA conjugate of m3; not shown: His-tag
In the case of B5, the IC50 in assay [2] was found to be 5 nM. Also, in [4], the “functional assay using PAE/KDR cells (FIG. 18e)” value is above 5 nM and the “phosphorylated VEGFR-2 (Western blot, PAE/KDR cells)” value is above 10 nM.

B6: VEGFR-2 specific mutant VEGFDEE (D63AE64AE67A mutant of VEGF121) (ligand)
chain: MAPMAEGGGQNHHEVVKFMDVYQRSYCHPIETLVDIFQEYPDEIEYIFKPSCVPLMRCGGCCNAAGLACVPTEESNITMQIMRIKPHQGQHIGEMSFLQHNKCECRPKKDRARQEKCDKPRRGS
notes: also called VEGF121-DEE Mutant; not shown: His-tag
For the molecule B6, in assay [7], the IC50 amounted to 78.1 nM. Also, the IC50 in [2] was 11.7 nM. For the same molecule, in [4], the “functional assay using PAE/KDR cells (FIG. 18e)” value was above 5 nM and the “phosphorylated VEGFR-2 (Western blot, PAE/KDR cells)” value was above 10 nM. Also, the “fold lower binding affinity against VEGF121” value in assay [8] turned out to be 4 fold. In assay [9], the “fold lower binding against VEGF121” value is around 20 fold. Also, the “fold higher binding affinity against VEGFR-1” value in assay [10] was around 7 fold.

B7: DOTA-VEGFDEE (ligand)
chain: B6 chain
modifications: DOTA conjugated; 2.2±0.1 DOTA molecules per monomeric VEGFDEE; sites not stated
notes: DOTA conjugate of m4; not shown: His-tag
Consider B7, for which the half-inhibitory concentration (IC50) in assay [2] is 10.3 nM. Moreover, in [4], the “functional assay using PAE/KDR cells (FIG. 18e)” value is above 5 nM and the “phosphorylated VEGFR-2 (Western blot, PAE/KDR cells)” value is above 10 nM.
